Results on ten molecules are retold here after patent US20240026017A1 (Kyowa Kirin, published 2024).

Where only a bound is given, the exact number is not on record here.

One test deals with T1, human CCR3 (human, UniProt P51677 1-355).
T1 construct: whole, on cells; also called hCCR3; CHO-S-hCCR3 (expressing cells)
T1 sequence (looked up): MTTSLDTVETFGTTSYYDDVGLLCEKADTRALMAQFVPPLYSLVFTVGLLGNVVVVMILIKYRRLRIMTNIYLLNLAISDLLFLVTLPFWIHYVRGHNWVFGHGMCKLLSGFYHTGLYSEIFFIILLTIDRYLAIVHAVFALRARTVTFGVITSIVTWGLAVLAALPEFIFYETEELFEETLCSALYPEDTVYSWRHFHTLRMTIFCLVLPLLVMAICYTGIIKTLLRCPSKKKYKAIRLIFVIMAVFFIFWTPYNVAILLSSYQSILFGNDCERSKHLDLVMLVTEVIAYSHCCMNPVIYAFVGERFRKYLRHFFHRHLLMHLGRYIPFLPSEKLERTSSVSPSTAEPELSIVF
Nature of the test: flow cytometry on CHO-S-hCCR3 cells, hybridoma culture supernatant diluted 10-fold. The text has this:
(§1) As test antibodies, each hybridoma culture supernatant diluted 10-fold, an existing mouse anti-human CCR1 monoclonal antibody 53504 antibody (R & D Technologies), and a mouse anti-human CCR3 monoclonal antibody 444-11 antibody (MBL) were used.
(§2) Regarding the measurement results, the fluorescence intensity when a certain cell was stained with a certain test antibody (each hybridoma culture supernatant, 53504 antibody or 444-11 antibody) and a secondary antibody was divided by the fluorescence intensity when the cell was stained only with the secondary antibody. […] In Table 2, the results are indicated as A and B, respectively.
(A flow cytometer gives signals particle by particle.)

For test [1], the target named is T2, human CC chemokine receptor 1 (human CCR1) (human, UniProt P32246 1-355).
T2 construct: endogenous on THP-1 cells in the migration assays; also called hCCR1; CHO-S-hCCR1 (expressing cells)
T2 sequence: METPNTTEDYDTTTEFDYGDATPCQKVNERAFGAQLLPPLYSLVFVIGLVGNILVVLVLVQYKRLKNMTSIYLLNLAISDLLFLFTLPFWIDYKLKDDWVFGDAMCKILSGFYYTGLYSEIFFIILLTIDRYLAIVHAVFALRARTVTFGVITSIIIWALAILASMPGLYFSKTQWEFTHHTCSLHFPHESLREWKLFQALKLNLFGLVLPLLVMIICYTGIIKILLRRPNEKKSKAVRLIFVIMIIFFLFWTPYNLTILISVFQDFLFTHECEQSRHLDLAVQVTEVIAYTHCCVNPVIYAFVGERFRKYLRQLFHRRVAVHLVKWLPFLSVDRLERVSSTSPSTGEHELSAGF
The test can be described thus: flow cytometry on CHO-S-hCCR1 cells, antibody 3.2 to 10,000 ng/mL, Geomean compared. The method, then: The antigen affinity of the chKM5908′ antibody, which is a VL-substituted chimeric antibody, was measured by flow cytometry using the CHO-S-hCCR1 cells produced in Example 2. The cells were collected by centrifugation, the supernatant was removed, and the cells were suspended in PBS (Staining Medium, hereinafter, abbreviated as SM) containing 2% fetal bovine serum (FBS), 0.05% NaN₃, and 1 mM EDTA. Next, the cells were seeded in a 96-well plate so that the number of cells is 1×10⁵ per well, and the chKM5908′ antibody was added at each final concentration of 10,000, 2,000, 400, 80, 16, and 3.2 ng/mL, and the reaction was performed at 4° C. for 60 minutes. After washing the cells with SM, Goat F (ab′)₂ Anti-Human IgG PE (γ chain specific) (Southern Biotech) diluted 500-fold with SM was added and reacted at 4° C. for 60 minutes. After washing the cells with SM, the cells were resuspended in 50 μL of SM, and the fluorescence intensity was measured by the flow cytometry (FACS Canto II, BD Biosciences).
The data was analyzed by FlowJo 7.65 (Tommy Digital Biology Co., Ltd.), and the binding strength was compared from the Geomean value at each concentration.

Test [2] deals with T2, human CC chemokine receptor 1 (human …). Nature of the test: cell-based or functional assay.
Test [3] addresses T3, NC3-mCCR1 (chimeric receptor in which positions 1 to 31 of mouse CCR1 were substituted with the corresponding … (human; mouse, UniProt P51677 1-31).
T3 construct: expressed on CHO-S cells; End 355 from the stated total length of CCR1; also called CHO-S-NC3-mCCR1 (expressing cells)
T3 sequence: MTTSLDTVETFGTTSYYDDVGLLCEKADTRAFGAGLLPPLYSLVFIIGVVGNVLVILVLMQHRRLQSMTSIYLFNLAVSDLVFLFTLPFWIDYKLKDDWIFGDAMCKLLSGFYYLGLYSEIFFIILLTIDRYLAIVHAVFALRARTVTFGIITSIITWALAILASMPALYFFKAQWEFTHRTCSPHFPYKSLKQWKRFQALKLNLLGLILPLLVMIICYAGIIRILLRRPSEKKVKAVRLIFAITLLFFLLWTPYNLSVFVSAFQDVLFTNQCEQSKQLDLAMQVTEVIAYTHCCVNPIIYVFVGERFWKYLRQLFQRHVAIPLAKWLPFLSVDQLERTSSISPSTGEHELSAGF
The test can be described thus: flow cytometry on CHO-S-NC3-mCCR1 cells, hybridoma culture supernatant diluted 10-fold.
Description: as §1, §2

B1: KM5909 antibody (antibody, mouse IgG1, V domains shown)
VH: EVQLVESGGDLVKPGGSLKLSCAASGFTLSNYGMSWVRQTPDKRLEWVASISIGNYIYYLDSVKGRFTIYRDNAKNTLFLQMRSLKSEDTAMYHCARQGNDYDWFTYWGQGTLVTVSA
VL: DVLMTQTPLSLPVSLGDQASISCRSSQSVVHTNGNTYLEWYLQKPGQSPKLLIYKVSNRFSGVPDRFSGSGSGTDFTLKINRVEAEDLGVYYCFQGSHLPWTFGGGTKLEIK
notes: mouse IgG1 from hybridoma
Regarding B1, in the test with human CCR3, the “fluorescence intensity ratio (test antibody + secondary / secondary only)” value is less than 10 fold.

B2: KM5915 antibody (antibody, mouse IgG2b, V domains shown)
VH: EVQLVESGGDLVKPGGSLKLSCAASGFTFSNYGMSWVRQTPDKRLEWVASISIGSYIYYLDSVKGRFTIYRDNAKNTLFLQMRSLKSEDTAMYHCARQGNDYDWFAYWGQGTLVTVSA
VL: DVLMTQTPLSLPVSLGDQASISCRSSQNIVHTNGNTYLEWYLQKPGQSPKLLIYKVSNRFSGVPDRFSGSGSGTDFTLKISRVEAEDLGVYYCFQGSHLPWTFGGGTKLEIK
notes: mouse IgG2b from hybridoma
With B2, the “fluorescence intensity ratio (test antibody + secondary / secondary only)” value with human CCR3 was less than 10 fold.

B3: KM5911 antibody (antibody, mouse IgG2b, V domains shown)
VH: DVKLVESGEGLVKPGGSLKLSCAASGFTFSRNAMSWVRQTPEKRMEWVAYISSGGDYIYYADTVKGRFTVSRDNARNTLYLRMSSLKSEDTAMYYCTRFSYGYAKNALDYWGQGTSVTVSS
VL: DIQMTQSPSSLSASLGGKVTITCKASQDIKKYIAWYQHKPGKGPRLLIHYTSSLQPGIPSRFSGSGSGRDYSFSISNLEPEDIATYYCLQYDYLMTFGGGTKLEIK
notes: mouse IgG2b from hybridoma
Take B3: the “fluorescence intensity ratio (test antibody + secondary / secondary only)” value with human CCR3 is less than 10 fold.

B4: KM5916 antibody (antibody, mouse IgG2b, V domains shown)
VH: DVKLVESGEGLVKPGGSLKLSCAASGFTFSRNAMSWVRQTPEKRLEWVAYISSGSDYIYYADTVKGRFTVSRDNARNTLYLQMTSLRSEDTAMYFCTRFSYGYGKNAPDYWGQGTSVTVSS
VL: DIQMTQSPSSLSASLGGKVTITCKASQDINKYIAWYQHKPGQGPRLLIHYTSSLQPGIPSRFSGSGSGRDYSFSISNLEPEDIATYYCLQYDYTMTFGGGTKLEIR
notes: mouse IgG2b from hybridoma
B4: the “fluorescence intensity ratio (test antibody + secondary / secondary only)” value with human CCR3 is less than 10 fold.

B5: chKM5908′ antibody (antibody, V domains shown)
VH: QVQLKQSGPGLVQPSQSLSITCTVSGFSLNNYGVHWVRQPPGKGLEWLGVIWSAGTTVYNAAFISRLSISKDDSKSQVFFKMNSLQAGDTAIYYCAKDGSRYYTAMDYWGQGTSVTVSS
VL: DVVMTQTPLSLPVSLGDQASIFCRSSQSLVHRNGITFFHWYLQKPGQSPKLLIYKVSNRFSGVPDRFSGSGSGTDFTLKISRVAPDDLGVYFCSQGTHVPPTFGGGTKLEIK
notes: chimeric; also called VL-substituted chimeric antibody (VH of chKM5908, VL of chKM5914)
Regarding B5, the binding result in test [1] was “binds”.

B6: hzKM5907 LV2bHV3a antibody (antibody, V domains shown)
VH: EVQLLESGGGLVQPGGSLRLSCAASGFTFSRYGMSWVRQAPGKRLEWVSSISATFTYTYYTDNVKGRFTISRDNSKNTLYLQMNSLRAEDTGVYYCARQDNYAWFDSWGQGTLVTVSS
VL: DIVMTQTPLSLPVTSGEPVSISCRSSQSIVHSNGNTFLEWYLKKPGQSPQLLIYKVSSRFSGVPDRFSGSGSGTDFTLKISRVEAEDVGVYYCFQGSHIPWTFGGGTKVEIK
With B6, the “antibody concentration showing THP-1 migration inhibitory activity” value in test [2] is no less than 0.3 µg/mL.

B7: KM5956 antibody (antibody, mouse IgG2a, V domains shown)
VH: QVQLKESGPGLVAPSQSLSITCTVSGFSLARYTITWVRQPPGKGLEWLGLIRTGGGTIYNSALKSRLSISKDNSKSQVFLKMNSLQSGDTARYYCARNGAYYSNSGSYWYFDVWGTGTTVTVSS
VL: QIVLTQSPAIMSASLGEEITLTCSASSSVTYMHWYQQKSGTSPKLLIYSTSNLASGVPSRFSGSGSGTFYSLTISSVEAEDAADYYCHQWSSHPCTFGGGAKLEIK
notes: mouse IgG2a from hybridoma
For the molecule B7, the “fluorescence intensity ratio (test antibody + secondary / secondary only)” value with human CCR3 is less than 10 fold.

B8: KM5955 antibody (antibody, mouse IgG2a, V domains shown)
VH: EVQLVESGGGLVKPGGSLKLSCAASGFTLRDFGMHWVRQVPEKGLEWVAYISSGRTAISYVDKVKGRFTISRDNAKNTLFLQMTSLRSEDTAMYYCARRPYSKSYAMDYWGQGTSVTVSS
VL: DVVLTQTPLSLPVNIGDQASISCKSIKSLLNSDGFTYLDWYLQKPGQSPQLLIYLVSNRFSGVPDRFSGSGSGTDFTLKIRRVEAEDLGVYYCFQSNYLPLTFGAGTKLELK
notes: mouse IgG2a from hybridoma
For B8, the “fluorescence intensity ratio (test antibody + secondary / secondary only)” value (with human CCR3; in test [3]) was less than 10 fold throughout.

B9: hzmAb5-06 LV5HV14 antibody (antibody, V domains shown)
VH: QVQLQQSGPGLVKPSQTLSITCTVSGFSLNNYGVHWVRQPPGKGLEWLGVIWSAGTTVYNAAAISRLTISKDTSKNQVSFKMSSLTAADTAVYYCAKDGSRYYTAMDYWGQGTLVTVSS
VL: DVVMTQSPLSLPVTLGEPASISCRSSQSLVHRNGITFFHWYLQKPGQSPKLLIYKISNRFSGVPDRFSGSGSGTDFTLKISRVEAEDVGVYFCSQGTHVPPTFGQGTKLEIK
Consider B9, for which the “antibody concentration showing THP-1 migration inhibitory activity” value in test [2] is no less than 0.3 µg/mL.

B10: hzKM5916 LV2HV0 antibody (antibody, V domains shown)
VH: QVQLQESGGGLVKPGGSLKLSCAASGFTFSRNAMSWVRQTPDKRLEWVAYISSGSDYIYYADTVKGRFTISRDNAKNTLYLQMSSLKSEDTAMYYCARFSYGYGKNAPDYWGQGTMVTVSS
VL: DIQMTQSPSSLSASVGDRVTITCKASQDINKYIAWYQHKPGKGPKLLIHYTSSLQPGVPSRFSGSGSGTDFSFTISSLQPEDLATYYCLQYDYTMTFGGGTKVEIK
For the molecule B10, in test [2], the “antibody concentration showing THP-1 migration inhibitory activity” value was no less than 0.3 µg/mL.
